Patent US20190360025A1
Each block holds one substance with its values, some of them ahead of it.

Tests used:
[1] = target: tumor necrosis factor alpha (TNF-α), R&D Systems 210-TA-005 (UniProt P01375); test: c-PLA 1X probes, human plasma; TNF-α 1.00E-10 M
[2] = target: tumor necrosis factor alpha (TNF-α), R&D Systems 210-TA-005 (UniProt P01375); test: c-PLA 10X probes, buffer; TNF-α 1.00E-11 M
[3] = target: tumor necrosis factor alpha (TNF-α), R&D Systems 210-TA-005 (UniProt P01375); test: t-PLA 10X probes, buffer; TNF-α 1.00E-10 M
[4] = target: tumor necrosis factor alpha (TNF-α), R&D Systems 210-TA-005 (UniProt P01375); test: t-PLA, buffer; TNF-α 1.00E-12 M
[5] = target: tumor necrosis factor alpha (TNF-α), R&D Systems 210-TA-005 (UniProt P01375); test: t-PLA 10X probes, buffer; TNF-α 1.00E-08 M
[6] = target: tumor necrosis factor alpha (TNF-α), R&D Systems 210-TA-005 (UniProt P01375); test: c-PLA 10X probes, buffer; TNF-α 1.00E-10 M
[7] = target: tumor necrosis factor alpha (TNF-α), R&D Systems 210-TA-005 (UniProt P01375); test: c-PLA 1X probes, buffer; TNF-α 1.00E-11 M
[8] = target: tumor necrosis factor alpha (TNF-α), R&D Systems 210-TA-005 (UniProt P01375); test: t-PLA 1X probes, buffer; TNF-α 1.00E-09 M
[9] = target: tumor necrosis factor alpha (TNF-α), R&D Systems 210-TA-005 (UniProt P01375); test: c-PLA 10X probes, human plasma; TNF-α 1.00E-09 M
[10] = target: tumor necrosis factor alpha (TNF-α), R&D Systems 210-TA-005 (UniProt P01375); test: SPR (Biacore T200), biotinylated antibody on CAP chip, 1:1 fit
[11] = target: tumor necrosis factor alpha (TNF-α), R&D Systems 210-TA-005 (UniProt P01375); test: t-PLA 10X probes, human plasma; TNF-α 1.00E-11 M
[12] = target: tumor necrosis factor alpha (TNF-α), R&D Systems 210-TA-005 (UniProt P01375); test: c-PLA 1X probes, human plasma; TNF-α 1.00E-08 M
[13] = target: tumor necrosis factor alpha (TNF-α), R&D Systems 210-TA-005 (UniProt P01375); test: t-PLA, buffer; TNF-α 1.00E-08 M
[14] = target: tumor necrosis factor alpha (TNF-α), R&D Systems 210-TA-005 (UniProt P01375); test: t-PLA 1X probes, human plasma; TNF-α 1.00E-09 M
[15] = target: tumor necrosis factor alpha (TNF-α), R&D Systems 210-TA-005 (UniProt P01375); test: t-PLA 1X probes, human plasma; TNF-α 1.00E-13 M
[16] = target: vascular endothelial growth factor (VEGF), R&D Systems 293-VE-010 (human) (UniProt P15692); test: c-PLA with preamplification; VEGF 1.00E-13 M
[17] = target: vascular endothelial growth factor (VEGF), R&D Systems 293-VE-010 (human) (UniProt P15692); test: c-PLA, buffer; VEGF 1.00E-14 M
[18] = target: vascular endothelial growth factor (VEGF), R&D Systems 293-VE-010 (human) (UniProt P15692); test: c-PLA, human plasma; VEGF 1.00E-08 M
[19] = target: vascular endothelial growth factor (VEGF), R&D Systems 293-VE-010 (human) (UniProt P15692); test: c-PLA with preamplification; VEGF 1.00E-08 M
[20] = target: vascular endothelial growth factor (VEGF), R&D Systems 293-VE-010 (human) (UniProt P15692); test: t-PLA, human plasma; VEGF 1.00E-10 M
[21] = target: vascular endothelial growth factor (VEGF), R&D Systems 293-VE-010 (human) (UniProt P15692); test: t-PLA, buffer; VEGF 1.00E-10 M
[22] = target: vascular endothelial growth factor (VEGF), R&D Systems 293-VE-010 (human) (UniProt P15692); test: t-PLA, buffer; VEGF 1.00E-13 M
[23] = target: vascular endothelial growth factor (VEGF), R&D Systems 293-VE-010 (human) (UniProt P15692); test: c-PLA, chicken plasma; VEGF 1.00E-11 M
[24] = target: vascular endothelial growth factor (VEGF), R&D Systems 293-VE-010 (human) (UniProt P15692); test: SPR (Biacore T200), biotinylated antibody on CAP chip, 1:1 fit
[25] = target: vascular endothelial growth factor (VEGF), R&D Systems 293-VE-010 (human) (UniProt P15692); test: t-PLA with preamplification; VEGF 1.00E-11 M
[26] = target: vascular endothelial growth factor (VEGF), R&D Systems 293-VE-010 (human) (UniProt P15692); test: c-PLA, human plasma; VEGF 1.00E-10 M
[27] = target: vascular endothelial growth factor (VEGF), R&D Systems 293-VE-010 (human) (UniProt P15692); test: t-PLA with preamplification; VEGF 1.00E-08 M
[28] = target: vascular endothelial growth factor (VEGF), R&D Systems 293-VE-010 (human) (UniProt P15692); test: c-PLA, buffer; VEGF 1.00E-11 M

Chain of UniProt P01375 (P01375 77-233 limits assumed): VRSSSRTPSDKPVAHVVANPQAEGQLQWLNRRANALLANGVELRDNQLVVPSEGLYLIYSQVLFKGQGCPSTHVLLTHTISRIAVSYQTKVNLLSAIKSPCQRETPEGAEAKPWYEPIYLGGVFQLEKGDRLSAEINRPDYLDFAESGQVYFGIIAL
Chain of UniProt P15692 (P15692 other isoform, or with tags, fused parts or gaps limits assumed): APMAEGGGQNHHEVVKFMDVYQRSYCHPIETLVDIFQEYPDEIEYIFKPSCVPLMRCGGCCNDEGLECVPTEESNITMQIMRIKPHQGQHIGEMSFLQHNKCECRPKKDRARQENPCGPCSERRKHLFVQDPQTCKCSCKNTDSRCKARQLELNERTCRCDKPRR

Substance: affinity-purified polyclonal anti-TNF-α antibody (R&D Systems AF-210-NA)
- Counts [1]: 331
- SBR [1]: 4.4
- Counts [2]: 590
- Counts [3]: 2.75e+07
- SBR [3]: 4.8
- Counts [4]: 1.65e+06
- SBR [4]: 9.7
- Counts [5]: 1.33e+09
- SBR [5]: 233
- Counts [6]: 4620
- Counts [7]: 22.1
- SBR [7]: 1.4
- Counts [8]: 1.98e+07
- Counts [9]: 45400
- SBR [9]: 21
- Kd [10]: 0.28 nM
- Counts [11]: 4.13e+06
- Counts [12]: 4770
- SBR [12]: 63
- Counts [13]: 5.4e+07
- SBR [13]: 317
- Counts [14]: 4.96e+06
- SBR [14]: 21
- Counts [15]: 203000

- Counts [16]: 95500
- SBR [16]: 1.6
- Counts [17]: 203
- SBR [17]: 6.8
- Counts [18]: 24800
- SBR [18]: 96
- Counts [19]: 8.14e+07
- SBR [19]: 1370
- Counts [20]: 4.9e+07
- SBR [20]: 30
- Counts [21]: 7.59e+08
- SBR [21]: 2190
- Counts [22]: 1.61e+06
- Counts [23]: 2160
- SBR [23]: 234
- Kd [24]: 3.6 pM
- Counts [25]: 1.26e+07
- SBR [25]: 71
- Counts [26]: 13800
- SBR [26]: 53
- Counts [27]: 1e+09
- SBR [27]: 5680
- Counts [28]: 4820
- SBR [28]: 162
Substance: affinity-purified polyclonal anti-VEGF antibody (R&D Systems AF-293-NA)
